According to paper doi:10.1101/2024.09.24.614694:

Target: CLuc-TaVIH2 (Triticum aestivum (wheat))
Test: split reporter

fold increase of luminescence (RLU) over controls: 7 to 8 fold
Substance: NLuc-TaFLA7 (natural protein)
